The values that follow come from US20110311551A1 (INSERM, published 2011).

In experiment [1] the target is T1, E2 octapeptide 479-486, GPDQRPYC (Hepatitis C virus).
T1 peptide: GPDQRPYC
Put plainly: octapeptides.

The target of experiment [2] is T2, E2 octapeptide 487-494, WHYPPKPC (Hepatitis C virus).
T2 peptide: WHYPPKPC
Put plainly: octapeptides.

Experiment [3] deals with T3, E2 region 480-494, PDQRPYCWHYPPKPC (Hepatitis C virus).
T3 construct: also called E2 480-494; regions 480-494 of E2 as pentadecapeptide
T3 peptide: PDQRPYCWHYPPKPC
Put plainly: ELISA with pentadecapeptides.

The target in experiment [4] is T4, E1 region 297-306, RHWTTQGCNC (Hepatitis C virus).
T4 construct: Region found with overlapping octapeptides; also called E1 297-306
T4 peptide: RHWTTQGCNC
Put plainly: overlapping octapeptides.

Experiment [5] deals with T5, E2 region 613-621, YRLWHYPCT (Hepatitis C virus).
T5 construct: Region found with overlapping octapeptides; also called E2 613-621
T5 peptide: YRLWHYPCT
Put plainly: overlapping octapeptides.

In another experiment the target is T6, human serum albumin (human, UniProt P02768 25-609).
T6 construct: also called HSA
T6 sequence (P02768 25-609 limits assumed): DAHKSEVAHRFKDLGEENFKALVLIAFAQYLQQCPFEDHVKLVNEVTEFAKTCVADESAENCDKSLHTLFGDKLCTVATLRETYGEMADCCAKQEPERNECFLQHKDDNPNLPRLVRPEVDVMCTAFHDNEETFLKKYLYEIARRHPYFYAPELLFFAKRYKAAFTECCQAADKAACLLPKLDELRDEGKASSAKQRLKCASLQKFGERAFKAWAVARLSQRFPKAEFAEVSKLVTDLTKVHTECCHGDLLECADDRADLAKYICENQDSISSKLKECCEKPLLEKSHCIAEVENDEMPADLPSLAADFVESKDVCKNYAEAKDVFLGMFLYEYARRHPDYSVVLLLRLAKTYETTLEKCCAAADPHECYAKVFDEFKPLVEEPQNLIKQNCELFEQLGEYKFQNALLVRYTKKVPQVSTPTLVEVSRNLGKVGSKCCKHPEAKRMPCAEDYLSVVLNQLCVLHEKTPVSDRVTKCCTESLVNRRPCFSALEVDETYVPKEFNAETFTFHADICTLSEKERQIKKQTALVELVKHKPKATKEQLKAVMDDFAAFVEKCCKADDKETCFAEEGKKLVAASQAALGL
Put plainly: EIA.

Experiment [6] concerns the target T7, peptides corresponding to the E2 region 612-626 (Hepatitis C virus).
T7 construct: 612-626 was counted over to 3-17 on that entry; also called E2 612-626
T7 peptide: PYRLWHYPCTINYTI
Put plainly: overlapping synthetic pentadecapeptides on a membrane, colorimetric immunoassay.

The target in experiment [7] is T8, peptides corresponding to the E2 region 686-697 (Hepatitis C virus).
T8 construct: 686-697 was counted over to 2-13 on that entry; also called E2 686-697
T8 peptide: STGLIHLHQNIV
The experiment is described as above.

Experiment [8] concerns the target T9, peptides corresponding to the 347-356 E1 region (Hepatitis C virus).
T9 construct: 347-356 was counted over to 5-14 on that entry; Made as overlapping pentadecapeptides on a membrane; also called E1 347-356
Described as above.

B1: monoclonal antibody D32.10 (antibody, V domains shown)
VH: EVQLQQSGAELVKPGASVKLSCTPSGFNIKDTYIHWVKQRPEQGLEWIGMINPANGNSNYDPKFQDKATITADTSSNTAYLQLSSLTSEDTAVYYCAEITTDFDVWGAGTTVTVSS
VL: NIVLTQSPPSLAVSLGQRATISCRASESVDSYGNSFLHWYQQKSGQPPKLLIYLASNLESGVPARFSGSGSRTDFTLTIDPLEADDAATYYCQQNNEAPFTFGSGTKLEIKR
notes: also called mAb D32.10; MAb D32.10
With B1, the binding result is reported as “binds” in experiment [1]; “binds” in experiment [2]; “binds” in experiment [3]; “binds” in experiment [4]; “binds” in experiment [5]; “no binding” with human serum albumin. For the same molecule, the results for the binding result in experiment [6], in experiment [7] and in experiment [8] were “binds”, “no binding” and “no binding”, respectively.
